Changes are numbered by the printed parent chain.
Legend:
[1] = target: T1, human CD16a (158F), full length, on FlpinCHO cells (human, UniProt P08637 17-254); assay: FACS on FlpinCHO cells
Procedure, shortened: (§1)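 Trypsinised cells in PBS + 2% BSA were incubated on ice for 1 hour with antibody at a range of concentrations. After washes, mean fluorescence intensity was read by flow cytometry. EC50 values were derived by curve fitting of MFI.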

[2] = target: T2, human CD16a (158V), full length, on cells (human, UniProt P08637 17-254); assay: FACS on FlpinCHO cells
T2 construct: also used as target for the bought Jurkat-NFAT reporter line stably expressing human CD16a (158V); also called FlpinCHO-human CD16a (158V); FlpinCHO-CD16a (158V)
Procedure, shortened: as §1

[3] = target: T3, human CD16b (NA1), full length, on FlpinCHO cells (human, UniProt O75015 17-200); assay: FACS on FlpinCHO cells
T3 construct: also called FlpinCHO-human CD16b (NA1)
T3 chain: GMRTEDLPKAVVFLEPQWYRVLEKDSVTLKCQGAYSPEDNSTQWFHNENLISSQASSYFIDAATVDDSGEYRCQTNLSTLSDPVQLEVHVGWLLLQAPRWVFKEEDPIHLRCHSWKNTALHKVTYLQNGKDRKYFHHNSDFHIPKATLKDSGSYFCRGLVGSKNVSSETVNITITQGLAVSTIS
Procedure, shortened: (§2)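 Trypsin-detached FlpinCHO cells expressing full-length CD16b were blocked in PBS+2% BSA and incubated on ice for 1 hour with antibody at varying concentrations. Binding read by flow cytometry as MFI; EC50 from curve fitting.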

[4] = target: T4, human CD16b (NA2), full length, on FlpinCHO cells (human, UniProt O75015 17-200); assay: FACS on FlpinCHO cells
T4 construct: also called FlpinCHO-human CD16b (NA2)
T4 chain: T3 chain with R20S, N49S, D66N, V90I
Procedure, shortened: as §2

[5] = target: T5, CD16 on primary human NK cells (human, UniProt P08637 17-254); assay: FACS on human NK cells
T5 construct: whole, on cells; also called resting NK cells
Procedure, shortened: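 Freshly prepared human NK cells were resuspended at 2×10⁶ cells/ml in PBS+2% (w/w) BSA and incubated 1 h on ice with antibody at varying concentrations. After five PBS washes, flow cytometry gave mean fluorescence intensity, and EC50 was fitted from the MFI curve.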

[6] = target: T6, cynomolgus monkey CD16, full length, on FlpinCHO cells (cynomolgus monkey, UniProt Q8SPW2 17-254); assay: FACS on FlpinCHO cells
T6 construct: also called FlpinCHO-cyno CD16; Flipin CHO-cyno CD16
T6 sequence (Q8SPW2 other isoform, or with tags, fused parts or gaps limits assumed): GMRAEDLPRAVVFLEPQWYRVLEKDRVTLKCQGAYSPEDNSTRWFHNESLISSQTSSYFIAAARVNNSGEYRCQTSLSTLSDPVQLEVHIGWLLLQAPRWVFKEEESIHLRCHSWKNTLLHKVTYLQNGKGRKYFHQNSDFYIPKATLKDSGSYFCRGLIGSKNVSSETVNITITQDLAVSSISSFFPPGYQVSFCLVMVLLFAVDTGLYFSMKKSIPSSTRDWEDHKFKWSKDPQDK
Method: The required cells were scale-up cultured in a T-75 cell culture flask to the logarithmic growth phase. The medium was aspirated, and the cells were washed twice with a PBS buffer and then digested with trypsin. After the digestion was terminated, the cells were washed twice with the PBS buffer. The cells were counted, and then the cell pellet was resuspended with a [PBS+2% (w/w) BSA] blocking solution to 2×10⁶ cells/ml, and added to a 96-well FACS reaction plate at 50 μl/well. […] 50 μl/well of the antibody to be detected was added at different concentrations, and incubated on ice for 1 hour. […] The mixture was centrifuged and washed 5 times with PBS, and FACS (FACS Canto II, purchased from BD Company) was used for detection and result analysis. Data analysis was performed by software (CellQuest) to obtain the mean fluorescence intensity (MFI) of the cells. Then, software (GraphPad Prism8) was used for analysis, data fitting and EC50 value calculation.
Flipin CHO-cyno CD16 cells were subjected to FACS detection and data analysis according to the method of Example 3.1.

[7] = target: T2, human CD16a (158V), full length, on …; assay: cell-based or functional assay
[8] = target: T1, human CD16a (158F), full length, on …; assay: FACS, biotinylated antibody
[9] = target: T2, human CD16a (158V), full length, on …; assay: FACS, biotinylated antibody
Human CD16a (158F)-his = target: T7, Human CD16a (158F)-his (human); assay: SPR (Biacore), antibody captured on Protein A
T7 construct: entry holds ECD, AVI tag, linker and His tag
Procedure, shortened: (§3)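 Protein A–captured antibody was probed with CD16-his ECD in HBS-EP+ at 25 °C: five 2-fold dilutions from 200 nM, 240 s at 30 μL/min, dissociation up to 600 s. Glycine pH 1.5 regenerated the chip. Apparent KD came from a double-referenced 1:1 Langmuir fit.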

Human CD16a (158V)-his = target: T8, Human CD16a (158V)-his (human); assay: SPR (Biacore), antibody captured on Protein A
T8 construct: entry holds ECD, AVI tag, linker and His tag
Procedure, shortened: as §3

[10] = target: T1, human CD16a (158F), full length, on …; assay: FACS, biotinylated antibody, +10 mg/mL human immunoglobulin
[11] = target: T2, human CD16a (158V), full length, on …; assay: as above
[12] = target: T5, CD16 on primary human NK cells; assay: FACS on human NK cells, biotinylated antibody
Human CD16b (NA1)-his = target: T9, Human CD16b (NA1)-his (human); assay: SPR (Biacore), antibody captured on Protein A
T9 construct: entry holds ECD, linker, His tag and AVI tag
T9 chain: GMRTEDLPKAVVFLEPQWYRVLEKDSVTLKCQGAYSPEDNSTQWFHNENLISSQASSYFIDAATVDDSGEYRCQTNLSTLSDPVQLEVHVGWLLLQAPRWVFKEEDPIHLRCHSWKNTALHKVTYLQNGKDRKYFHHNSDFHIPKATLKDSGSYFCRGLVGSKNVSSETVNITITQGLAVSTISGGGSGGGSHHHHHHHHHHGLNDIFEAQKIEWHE
Procedure, shortened: as §3

[13] = target: T5, CD16 on primary human NK cells; assay: FACS on human NK cells, biotinylated antibody, +10 mg/mL human immunoglobulin

B1: VHH13 VHH-Fc antibody (Fc fusion)
chain: EVQVVESGGGLVQAGGSLRLSCAASGITFSSYAMGWYRQAPGKQRELVAAINRFGLTNYADSVKGRFTISRDNAKSTVYLQMTSLKPEDTAVYYCNTGGVYSHPDYYTGTYWGQGTQVTVSSEPKSSDKTHTCPPCPAPEFEGGPSVFLFPPKPKDTLMISRTPEVTCVVVAVSHEDPEVKFNWYVDGVEVHNAKTKPREEQYNSTYRVVSVLTVLHQDWLNGKEYKCKVSNKALPAPIEKTISKAKGQPREPQVYTLPPSREEMTKNQVSLTCLVKGFYPSDIAVEWESNGQPENNYKTTPPVLDSDGSFFLYSKLTVDKSRWQQGNVFSCSVMHEALHNHYTQKSLSLSPGK
EC50 [1]: 180 pM
Maximum mean fluorescence intensity [1]: 6020
EC50 [2]: 240 pM
Maximum mean fluorescence intensity [2]: 6660
EC50 [3]: 770 pM
Maximum mean fluorescence intensity [3]: 51400
EC50 [4]: 1110 pM
Maximum mean fluorescence intensity [4]: 70200
EC50 [5]: 150 pM
Maximum mean fluorescence intensity [5]: 2630
EC50 [6]: 240 pM
Maximum mean fluorescence intensity [6]: 21400
EC50, activation activity for Jurkat cell [7]: 20 pM
Maximum fluorescence value [7]: 165000
EC50 [8]: 160 pM
Maximum mean fluorescence intensity [8]: 6240
EC50 [9]: 250 pM
Maximum mean fluorescence intensity [9]: 9620
Kd (Human CD16a (158F)-his): 22200 pM
koff (Human CD16a (158F)-his): 0.0192 s⁻¹
kon (Human CD16a (158F)-his): 866000 M⁻¹ s⁻¹
Kd (Human CD16a (158V)-his): 19800 pM
koff (Human CD16a (158V)-his): 0.0362 s⁻¹
kon (Human CD16a (158V)-his): 1.83e+06 M⁻¹ s⁻¹
EC50 [10]: 670 pM
Maximum mean fluorescence intensity [10]: 5830
EC50 [11]: 1090 pM
Maximum mean fluorescence intensity [11]: 9660

B2: VHH05 VHH-Fc antibody (Fc fusion)
chain: QVQLVESGGGLVQAGGSLRLSCVASSSTVTTYAVRWYRQAPGKQREWVAFISVDGNTNYPDSVKGRFIVSRDNAKNTVYLQMNSLKPEDTADYICRAGGQYWGQGTQVTVSSEPKSSDKTHTCPPCPAPEFEGGPSVFLFPPKPKDTLMISRTPEVTCVVVAVSHEDPEVKFNWYVDGVEVHNAKTKPREEQYNSTYRVVSVLTVLHQDWLNGKEYKCKVSNKALPAPIEKTISKAKGQPREPQVYTLPPSREEMTKNQVSLTCLVKGFYPSDIAVEWESNGQPENNYKTTPPVLDSDGSFFLYSKLTVDKSRWQQGNVFSCSVMHEALHNHYTQKSLSLSPGK
EC50 [1]: 490 pM
Maximum mean fluorescence intensity [1]: 7320
EC50 [2]: 530 pM
Maximum mean fluorescence intensity [2]: 8100
EC50 [3]: 960 pM
Maximum mean fluorescence intensity [3]: 42500
EC50 [5]: 620 pM
Maximum mean fluorescence intensity [5]: 2560
EC50, activation activity for Jurkat cell [7]: 30 pM
Maximum fluorescence value [7]: 171000
EC50 [8]: 330 pM
Maximum mean fluorescence intensity [8]: 8780
EC50 [9]: 740 pM
Maximum mean fluorescence intensity [9]: 12400
EC50 [12]: 1150 pM
Maximum mean fluorescence intensity [12]: 63200
Kd (Human CD16a (158F)-his): 8160 pM
koff (Human CD16a (158F)-his): 0.000499 s⁻¹
kon (Human CD16a (158F)-his): 61200 M⁻¹ s⁻¹
Kd (Human CD16a (158V)-his): 3730 pM
koff (Human CD16a (158V)-his): 0.000321 s⁻¹
kon (Human CD16a (158V)-his): 86100 M⁻¹ s⁻¹
Kd (Human CD16b (NA1)-his): 9280 pM
koff (Human CD16b (NA1)-his): 0.000958 s⁻¹
kon (Human CD16b (NA1)-his): 103000 M⁻¹ s⁻¹
EC50 [10]: 1510 pM
Maximum mean fluorescence intensity [10]: 10000
EC50 [11]: 1700 pM
Maximum mean fluorescence intensity [11]: 13300
EC50 [13]: 2940 pM
Maximum mean fluorescence intensity [13]: 72800
